Source: patent publication US10253344B2, “Recombinant production of steviol glycosides” (Conagen Inc., priority 2013, dated 2019)

Tests used:
Type in all cases: biochemical
[1] = in vitro conversion of rebaudioside A to rebaudioside D by recombinant HV1 polypeptide, with or without AtSUS1
Method: (§1) The purified candidate UGT recombinant polypeptides were assayed for 1,2-19-O-glucose glycosylation activity by using stevioside or Reb A as the substrate (FIGS. 1A-1C). Typically, the recombinant polypeptide (10 μg) was tested in a 200 μl in vitro reaction system. The reaction system contains 50 mM potassium phosphate buffer, pH 7.2, 3 mM MgCl2, 1 mg/ml stevioside or rebaudioside A, 1 mM UDP-glucose. The reaction was performed at 30° C. and terminated by adding 200 μL 1-butanol. The samples were extracted three times with 200 μL 1-butanol. The pooled fraction was dried and dissolved in 70 μL 80% methanol for high-performance liquid chromatography (HPLC) analysis. Stevia extract (Blue California, Calif.), containing 95% stevioside, was used as stevioside substrate. Rebaudioside A (purity 99%) was also supplied by Blue California.
(§2) The UGT catalyzed glycosylation reaction was be coupled to a UDP-glucose generating reaction catalyzed by a sucrose synthase (such as AtSUS1 of SEQ ID NO:9). […] The purified recombinant AtSUS1 polypeptide was analyzed by SDS-PAGE (molecular weight: 106.3 kD, FIG. 7). […]
(§3) HPLC analysis was then performed using a Dionex UPLC ultimate 3000 system (Sunnyvale, Calif.), including a quaternary pump, a temperature controlled column compartment, an auto sampler and a UV absorbance detector. […]

[2] = in vitro conversion of stevioside by recombinant HV1 polypeptide in UGT-SUS coupling reaction system
Method: as §1, with “Stevia extract (Blue California, Calif.), containing 95% stevioside, was used as stevioside substrate. Rebaudioside A (purity 99%) was also supplied by Blue California.” left out
as §2, §3
Accordingly, the catalytic activity of the recombinant HV1 polypeptide for steviol glycoside biosynthesis (e.g., production of rebaudioside D) was further determined in combination with UGT76G1. […] The products were analyzed by HPLC.

[3] = in vitro conversion of Reb E to Reb Z by recombinant HV1 polypeptide and AtSUS1; details: Reb E 0.5 mg/ml, HV1 20 μg and AtSUS1 20 μg, 24 hours
Method: An unexpected compound (“Reb Z”) having a HPLC retention time 6.68 minute (see, FIG. 4) that was distinctive from rebaudiosides D and E was produced. This compound represents a novel steviol glycoside, and is termed “rebaudioside Z” (“Reb Z”). To confirm the conversion of Reb E to Reb Z, Reb E substrate (0.5 mg/ml) was incubated with the recombinant HV1 polypeptide (20 μg) and AtSUS1 (20 μg) in a UGT-SUS coupling reaction system ([…]) under conditions similar to those used in the examples above.

[4] = enzymatic activity screening of candidate UGT polypeptides for 1,2-19-O-glucose glycosylation activity (in vitro reaction, HPLC); details: stevioside or Reb A as substrate, 30° C.
Method: as §1, §2, §3

[5] = in vitro conversion of rebaudioside E to rebaudioside D by recombinant UGT76G1, with or without AtSUS1; details: with or without AtSUS1, 6 hours
Method: Codon optimized UGT76G1 cDNA was inserted in a bacterial expression vector, and the recombinant UGT76G1 protein was expressed and purified by affinity chromatography. The purified recombinant UGT76G1 polypeptide was analyzed by SDS-PAGE (molecular weight: 65.4 kD, FIG. 9). The rebaudioside E substrate was incubated with the recombinant UGT76G1, with or without AtSUS1, under conditions similar to those used in the Examples above. The products were analyzed by HPLC. […] Addition of recombinant AtSUS in the reaction enhanced the conversion efficiency in UGT-SUS coupling system.

| Molecule | conversion of rebaudioside A to rebaudioside D ([1]; HV1 alone without AtSUS1, after 24 hours) | conversion of rebaudioside A to rebaudioside D ([1]; UGT-SUS coupling reaction system (with AtSUS1), 6-24 hours) | production of rebaudioside D from stevioside ([2]; HV1 10 μg in combination with UGT76G1 10 μg and AtSUS1 10 μg) | conversion of stevioside to rebaudioside E ([2]; coupled with AtSUS1, in vitro, 20 hours) | production of Reb Z from Reb E [3] | 1,2-19-O-glucose glycosylation activity [4] | 1,3-13-O-glucose glycosylation activity (Reb D from Reb E) [5] |
| --- | --- | --- | --- | --- | --- | --- | --- |
| HV1: recombinant UDP-glycosyltransferase polypeptide (SEQ ID NO:6) derived from Hordeum vulgare subsp. vulgare (protein, Hordeum vulgare) MDGNSSSSPLHVVICPWLALGHLLPCLDIAERLASRGHRVSFVSTPRNIARLPPLRPAVAPLVDFVALPLPHVDGLPEGAESTNDVPYDKFELHRKAFDGLAAPFSEFLRAACAEGAGSRPDWLIVDTFHHWAAAAAVENKVPCVMLLLGAATVIAGFARGVSEHAAAAVGKERPAAEAPSFETERRKLMTTQNASGMTVAERYFLTLMRSDLVAIRSCAEWEPESVAALTTLAGKPVVPLGLLPPSPEGGRGVSKEDAAVRWLDAQPAKSVVYVALGSEVPLRAEQVHELALGLELSGARFLWALRKPTDAPDAAVLPPGFEERTRGRGLVVTGWVPQIGVLAHGAVAAFLTHCGWNSTIEGLLFGHPLIMLPISSDQGPNARLMEGRKVGMQVPRDESDGSFRREDVAATVRAVAVEEDGRRVFTANAKKMQEIVADGACHERCIDGFIQQLRSYKA | only partial rebaudioside A was converted | completely converted | rebaudioside D was produced | converted stevioside to rebaudioside E | Reb Z was produced | showed a 1,2-19-O-glucose glycosylation activity |  |
| UGT76G1: recombinant UDP-glycosyltransferase from stevia (SEQ ID NO:11) (protein, listed as Stevia rebaudiana) MENKTETTVRRRRRIILFPVPFQGHINPILQLANVLYSKGFSITIFHTNFNKPKTSNYPHFTFRFILDNDPQDERISNLPTHGPLAGMRIPIINEHGADELRRELELLMLASEEDEEVSCLITDALWYFAQSVADSLNLRRLVLMTSSLFNFHAHVSLPQFDELGYLDPDDKTRLEEQASGFPMLKVKDIKSAYSNWQILKEILGKMIKQTKASSGVIWNSFKELEESELETVIREIPAPSFLIPLPKHLTASSSSLLDHDRTVFQWLDQQPPSSVLYVSFGSTSEVDEKDFLEIARGLVDSKQSFLWVVRPGFVKGSTWVEPLPDGFLGERGRIVKWVPQQEVLAHGAIGAFWTHSGWNSTLESVCEGVPMIFSDFGLDQPLNARYMSDVLKVGVYLENGWERGEIANAIRRVMVDEEGEYIRQNARVLKQKADVSLMKGGSSYESLESLVSYISSL |  |  |  |  |  |  | showed a 1,3-13-O-glucose glycosylation activity |
